What is called Kd is a measure of binding affinity in units of concentration. Low values mean tighter binding, high ones weaker binding.

The target of assay [1] is HA of A/New Caledonia/20/1999 (influenza A virus A/New Caledonia/20/1999) (UniProt Q6WG00).
Assay [2] has as its target HA of A/Puerto Rico/8/1934 (influenza A virus A/Puerto Rico/8/1934) (UniProt P03452).
For the next assay, the target named is C05 V110P (human). In words: BLI. (In general: In BLI a coated tip is dipped into the sample, and binding shifts an interference pattern.)

For C05 V110P (antibody), in assay [1], the HAI, antibody concentration at the endpoint titer; virus A/New Caledonia/20/1999 came to 0.2 µg/mL.

For the substance C05 V110P-A117E (antibody), the HAI, antibody concentration at the endpoint titer; virus A/Puerto Rico/8/1934 in assay [2] is > 100 µg/mL. This substance also gave an HAI, antibody concentration at the endpoint titer; virus A/New Caledonia/20/1999 in assay [1] of 0.2 µg/mL.

In the assay with C05 V110P (human), “HA of A/Puerto Rico/8/1934 (from UniProt P03452) (natural protein)” yielded a Kd of 2300 nM.

These data come from PMC6358683.
